Data on 13 molecules can be found in patent US20180256644A1.

In test [1] the target is human CD28 (full-length, expressed on transfected Expi293F cells) (human) (UniProt P10747). The experiment in a line: flow cytometry, transfected Expi293 cells.
Test [2] addresses human PD-L1, full-length, expressed on Expi293F cells (human) (UniProt Q9NZQ7). The experiment in a line: flow cytometry, Expi293 cells expressing human PD-L1.
The target in test [3] is human PD-L1 (full-length, expressed on transfected Expi293F cells) (human) (UniProt Q9NZQ7). The experiment in a line: flow cytometry, transfected Expi293 cells.
Test [4] concerns the target human CD28 (full-length, expressed on transfected Expi293F cells) (human) (UniProt P10747). The test is described as follows: flow cytometry; ratio to WT parental stack. For orientation: Flow cytometry measures light scatter and fluorescence of single cells or particles in a stream.
Test [5] deals with human PD-L1 (full-length, expressed on transfected Expi293F cells) (human) (UniProt Q9NZQ7). The experiment in a line: flow cytometry; ratio to WT parental stack.
Test [6] has as its target human CD28 (full-length, expressed on transfected Expi293F cells) (human) (UniProt P10747). The test is described as follows: flow cytometry; ratio to WT ICOSL ECD-Fc.
Test [7] concerns the target human CTLA4, full-length, expressed on Expi293F cells (human) (UniProt P16410). The experiment in a line: flow cytometry, Expi293 cells expressing human CTLA-4.
UniProt P16410, sequence (P16410 36-223): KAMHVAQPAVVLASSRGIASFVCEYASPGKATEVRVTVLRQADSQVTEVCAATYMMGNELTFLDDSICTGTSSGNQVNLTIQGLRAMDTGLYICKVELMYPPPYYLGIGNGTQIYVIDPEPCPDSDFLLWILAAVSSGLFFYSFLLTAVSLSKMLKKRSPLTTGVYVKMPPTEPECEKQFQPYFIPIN

“CD80 WT / CD80 WT stacked IgV-Fc (Fc fusion)” showed an MFI in test [1] of 1630 MFI.

With CD80 variant A91G/S103P ECD-Fc fusion, in test [2], the MFI was found to be 9 MFI and the MFI parental ratio (fold of WT CD80) was 0.13. As to “NKp30 WT / CD86 WT stacked IgV-Fc (Fc fusion)”, the MFI in test [1] turned out to be 1690 MFI. Same read-out and setting: as for “NKp30 WT / ICOSL WT stacked IgV-Fc (Fc fusion)”, the figure is 6340 MFI. “CD80 WT / CD86 WT stacked IgV-Fc (Fc fusion)”: the MFI in test [3] was determined as 2080 MFI. “CD80 WT / ICOSL WT stacked IgV-Fc (Fc fusion)”: the MFI is 1230 MFI in test [1] and 2660 MFI in test [3]. In test [1], “CD80 I67T/L70Q/A91G/T120S / CD80 E88D/K89R/D90K/A91G/F92Y/K93R stacked IgV-Fc (Fc fusion)” displayed an MFI of 938 MFI. Besides, the WT parental MFI ratio in test [4] worked out at 0.57. Take “ICOSL WT / CD80 WT stacked IgV-Fc (Fc fusion)”: the MFI in test [3] was determined as 2970 MFI. On to “CD86 Q35H/H90L/Q102H / CD80 A12T/H18L/N43V/F59L/E77K/P109S/I118T stacked IgV-Fc (Fc fusion)”, for which the MFI in test [3] amounted to 2110 MFI. The WT parental MFI ratio in test [5] came out at 1.39.

For the molecule “ICOSL WT / Nkp30 WT stacked IgV-Fc (Fc fusion)”, the MFI in test [1] was found to be 7920 MFI.

B1: ICOSL variant ECD-Fc F120S/Y152H/N201S (Fc fusion)
chain: DTQEKEVRAMVGSDVELSCACPEGSRFDLNDVYVYWQTSESKTVVTYHIPQNSSLENVDSRYRNRALMSPAGMLRGDFSLRLFNVTPQDEQKFHCLVLSQSLGFQEVLSVEVTLHVAANSSVPVVSAPHSPSQDELTFTCTSINGYPRPNVHWINKTDNSLLDQALQNDTVFLNMRGLYDVVSVLRIARTPSVNIGCCIESVLLQQNLTVGSQTGNDIGERDKITENPVSTGEKNAATAAAEPKSSDKTHTCPPCPAPELLGGPSVFLFPPKPKDTLMISRTPEVTCVVVDVSHEDPEVKFNWYVDGVEVHNAKTKPCEEQYGSTYRCVSVLTVLHQDWLNGKEYKCKVSNKALPAPIEKTISKAKGQPREPQVYTLPPSREEMTKNQVSLTCLVKGFYPSDIAVEWESNGQPENNYKTTPPVLDSDGSFFLYSKLTVDKSRWQQGNVFSCSVMHEALHNHYTQKSLSLSPGK
As for B1, in test [6], the MFI parental ratio stood at 0.89.

B2: CD80 variant L70Q/A91G/T110A/T120S/T130A ECD-Fc fusion (Fc fusion)
chain: VIHVTKEVKEVATLSCGHNVSVEELAQTRIYWQKEKKMVLTMMSGDMNIWPEYKNRTIFDITNNLSIVIQALRPSDEGTYECVVLKYEKDGFKREHLAEVTLSVKADFPAPSISDFEIPSSNIRRIICSASGGFPEPHLSWLENGEELNAINTTVSQDPETELYAVSSKLDFNMTTNHSFMCLIKYGHLRVNQTFNWNTTKQEHFPDNAAAEPKSSDKTHTCPPCPAPELLGGPSVFLFPPKPKDTLMISRTPEVTCVVVDVSHEDPEVKFNWYVDGVEVHNAKTKPCEEQYGSTYRCVSVLTVLHQDWLNGKEYKCKVSNKALPAPIEKTISKAKGQPREPQVYTLPPSREEMTKNQVSLTCLVKGFYPSDIAVEWESNGQPENNYKTTPPVLDSDGSFFLYSKLTVDKSRWQQGNVFSCSVMHEALHNHYTQKSLSLSPGK
For B2, in test [7], the MFI was determined as 14 MFI and the MFI parental ratio (fold of WT CD80) turned out to be 0.07.

B3: CD80 variant V20L/L70Q/A91S/T120S/T130A ECD-Fc fusion (Fc fusion)
chain: VIHVTKEVKEVATLSCGHNLSVEELAQTRIYWQKEKKMVLTMMSGDMNIWPEYKNRTIFDITNNLSIVIQALRPSDEGTYECVVLKYEKDSFKREHLAEVTLSVKADFPTPSISDFEIPSSNIRRIICSASGGFPEPHLSWLENGEELNAINTTVSQDPETELYAVSSKLDFNMTTNHSFMCLIKYGHLRVNQTFNWNTTKQEHFPDNAAAEPKSSDKTHTCPPCPAPELLGGPSVFLFPPKPKDTLMISRTPEVTCVVVDVSHEDPEVKFNWYVDGVEVHNAKTKPCEEQYGSTYRCVSVLTVLHQDWLNGKEYKCKVSNKALPAPIEKTISKAKGQPREPQVYTLPPSREEMTKNQVSLTCLVKGFYPSDIAVEWESNGQPENNYKTTPPVLDSDGSFFLYSKLTVDKSRWQQGNVFSCSVMHEALHNHYTQKSLSLSPGK
B3: in test [2], the MFI was 9 MFI and the MFI parental ratio (fold of WT CD80) is 0.13.
